Test results published in patent US20090081786A1 (published 2009).

B2: annexin V (other)
chain: AQVLRGTVTDFPGFDERADAETLRKAMKGLGTDEESILTLLTSRSNAQRQEISAAFKTLFGRDLLDDLKSELTGKFEKLIVALMKPSRLYDAYELKHALKGAGTNEKVLTEIIASRTPEELRAIKQVYEEEYGSSLEDDVVGDTSGYYQRMLVVLLQANRDPDAGIDEAQVEQDAQALFQAGELKWGTDEEKFITIFGTRSVSHLRKVFDKYMTISGFQIEETIDRETSGNLEQLLLAVVKSIRSIPAYLAETLYYAMKGAGTDDHTLIRVMVSRSEIDLFNIRKEFRKNFATSLYSMIKGDTSGDYKKALLLLCGEDD
notes: 10 µg annexin V was run on SDS-PAGE, blotted to nitrocellulose and used as the immobilized partner in the overlay assay; also called immobilized annexin V

Columns and labels:
annexin V [1] = biological target: B2; experiment: overlay assay on blotted annexin V, FIG. 1D
Method: (§1) The strips were incubated with blocking buffer (50 mM Tris pH 7.5, 200 mM NaCl, 3% bovine serum albumin, 0.1% PEG20). […] The strips where then washed with wash buffer (50 mM Tris pH 7.5, 200 mM NaCl, 0.1% PEG20, 12 mM β-mercaptoethanol), and then incubated with fixative (0.2% formaldehyde in PBS) and neutralizing solution (0.2M glycine in PBS) at room temperature 20 min each. After washing with buffer, the strips were probed with antibodies according to the overlay protein, and resulting bands were visualized using ECL Western blotting.

full-length δ-PKC = biological target: T1, full-length δ-PKC (Mus musculus (Mouse), UniProt P28867 1-674); experiment: overlay assay on blotted annexin V (figure legend, FIGS. 1A-D)
T1 construct: Full-length δ-PKC in the overlay assay; also called δ-protein kinase C; delta PKC
Method: as §1

annexin V [2] = biological target: B2; experiment: as above
Method: as §1

annexin V [3] = biological target: B2; experiment: overlay assay on annexin V blotted to nitrocellulose, FIG. 1D
Method: as §1

B1: glutathione-S-transferase-delta V5 PKC fusion protein (other)
chain: PKVKSPSDYSNFDPEFLNEKPQLSFSDKNLIDSMDQEAFHGFSFVNPKFEQFLDI
notes: Used as crude bacterial cell lysate (30 µg) containing the fusion protein; also called GST-δV5; δ-V5; not shown: glutathione-S-transferase (GST) fusion tag
binding result (annexin V [1]): binds

B2
binding result (full-length δ-PKC): binds

B3: myelin basic protein (MBP)-delta V1 PKC fusion protein (other)
chain: MAPFLRISFNSYELGSLQAEDDASQPFCAVKMKEALTTDRGKTLVQKKPTMYPEWKSTFDAHIYEGRVIQIVLMRAAEDPMSEVTVGVSVLAERCKKNNGKAEFWLDLQPQAKVLMCVQYFLEDGDCKQSMRSEEEAMFPTMNRRGAIKQAKIHYIKNHE
notes: Used as crude bacterial cell lysate (30 µg) containing the fusion protein; also called MBP-δV1; δ-V1; not shown: fusion tag printed as 'myelin basic protein (MBP)'
binding result (annexin V [2]): binds

B4: ε-V1 (V1 region of ε-PKC) (other)
chain: MVVFNGLLKIKICEAVSLKPTAWSLRHAVGPRPQTFLLDPYIALNVDDSRIGQTATKQKTNSPAWHDEFVTDVCNGRKIELAVFHDAPIGYDDFVANCTIQFEELLQNGSRHFEDWIDLEPEGKVYVIIDLSGSSGEAPKDNEE
binding result (annexin V [3]): no binding
